Columns and labels:
HSV-1 TK [1] = molecular target: T1, HSV-1 TK (Human herpesvirus 1, UniProt P0DTH5); test: Photoaffinity labeling with [^32P]5-azido-dUMP; type: binding, herpes simplex virus type 1; design: made in house; host or cells: E. coli BL21SY211 (pET-9a derived pET-TK1); conditions: FIG. 1, autoradiograph
T1 sequence (P0DTH5 1-376): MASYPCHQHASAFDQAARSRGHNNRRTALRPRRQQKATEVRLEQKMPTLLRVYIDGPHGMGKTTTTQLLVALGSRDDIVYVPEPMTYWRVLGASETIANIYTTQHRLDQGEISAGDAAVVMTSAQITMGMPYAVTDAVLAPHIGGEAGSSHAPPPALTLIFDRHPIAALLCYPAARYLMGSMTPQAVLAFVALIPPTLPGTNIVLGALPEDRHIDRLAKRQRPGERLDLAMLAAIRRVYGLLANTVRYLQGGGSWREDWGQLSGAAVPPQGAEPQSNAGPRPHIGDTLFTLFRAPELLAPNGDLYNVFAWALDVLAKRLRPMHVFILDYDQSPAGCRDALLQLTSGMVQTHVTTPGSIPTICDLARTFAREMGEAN
Method: The TMP photoaffinity analog, [^32P]5-N3dUMP, was synthesized enzymatically using HSV-1 TK, 5-azido-deoxyuridine and [g-^32P]ATP as previously described (10, 12). For photolabeling studies, 10 μg of the DE-52/heparin agarose purified HSV-TKs were incubated with 10 mM [^32P]5-N3dUMP for 10 seconds. The sample was then irradiated for 90 seconds with a hand-held UV lamp (254 nm UVP-11, Ultraviolet Products, Inc.) at a distance of 3 cm. Reactions were terminated by addition of an equal volume of 10% TCA, incubated on ice for 10 minutes, and pelleted by centrifugation at 13,000×g for 5 minutes. The protein was resuspended in a solubilization mixture (23) and separated on 10% SDS-polyacrylamide gels. Dried gels were exposed to film for 2 days.
The thymidine and TMP photoaffinity analog, [^32p]5-azido-dUMP, has proven useful as an active-site cross-linking reagent for studying HSV-1 TK (10, 12). This analog was used for photocrosslinking of the four HSV-1 TKs.

HSV-1 TK [2] = molecular target: T1, HSV-1 TK; conditions: reference (29); cited from earlier work
HCT-116 cells = test: Clonal dilution assay for bystander effect cell killing; type: cell-based, human; conditions: 25 μM GCV 24 hours
Method: Each of the three HSV-1 TK expressing cell lines were plated with parental HCT-116 cells (total 2×10^5/well) in the following proportions: (parental: HSV-1TK cells) 100%:0; 95%:5%; 90%:10%; 75%:25%; 50%:50% and 0:100%. […] After 7 days, surviving cell colonies were fixed in 100% methanol, stained with 0.1% methylene blue and counted.
For determination of GCV sensitivity, parental HCT-116 and each HSV-1 TK expressing cells were seeded in 24 well plates (2×10^5/well) in 1 ml of media. The next day, 0, 0.1, 1 or 10 μM GCV was added to each cell line in triplicate. After 24 hours, for each well the media was removed, cells were rinsed twice in fresh media, trypsinized, then media was added to 1 ml per well. Each well of cells was then sequentially diluted from 1:10 to 1:10,000 in 1 ml of fresh media on a separate 24 well plate. After 7 days, surviving cell colonies were fixed in 100% methanol, stained with 0.1% methylene blue and counted. […]
It has been previously established that HCT-116 cells expressing HSV-1 TK are sensitive to bystander effect cell death via a connexin-43 gap junction mediated transfer of GCV metabolites (24). […] In these same cell lines, a greater than 4-log reduction in cell colony numbers was detected with 25% and 50% proportions of HSV-1 TK-expressing cells. […]

Row | Substance | Photoincorporation of [^32P]5-azido-dUMP (HSV-1 TK [1]) | Km for thymidine lower than that of GCV (HSV-1 TK [2]) | Bystander effect: decrease in cell colony numbers (HCT-116 cells; 10% proportions) | Bystander effect: decrease in cell colony numbers (HCT-116 cells; 50% proportions)
1 | Gln-125 (WT): wild-type herpes simplex virus type 1 thymidine kinase with glutamine at position 125, parent enzyme [reference compound] | photoincorporated efficiently | 70-100 times | – | –
2 | Glu-125 | – | – | 1 log | ~3 log

Reference: US6610289B2, “Mutated herpes simplex virus type 1 thymidine kinases and uses thereof” (The Board of Trustees of the University of Arkansas, priority 1998, dated 2003)
